Experimental data reported in paper PMC12746075, “Twinfilin modulates tissue contractility through uncapping of capping protein in C. elegans” (Development (Cambridge, England), 2025).

Target: T1, biotinylated SNAP-tagged C. elegans heterodimeric capping protein (CAP-1 and CAP-2) (C. elegans, UniProt P34685 1-282; P34686 1-270, biotin (benzylguanine-biotin on the SNAP tag; subunit that carries the tag not stated) | biotin (benzylguanine-biotin on the SNAP tag; subunit that carries the tag not stated))
T1 construct: CAP-1, capping protein subunit of C. elegans; CAP-2, capping protein subunit of C. elegans; only one SNAP tag is meant for the heterodimer; also called CP; SNAP-CP; source: E. coli BL21 DE3, purified (HisTrap, size-exclusion chromatography Superose 6), labeled with benzylguanine-biotin; not shown: His tag (from the HisTrap chromatography)
T1 sequence (looked up) 1: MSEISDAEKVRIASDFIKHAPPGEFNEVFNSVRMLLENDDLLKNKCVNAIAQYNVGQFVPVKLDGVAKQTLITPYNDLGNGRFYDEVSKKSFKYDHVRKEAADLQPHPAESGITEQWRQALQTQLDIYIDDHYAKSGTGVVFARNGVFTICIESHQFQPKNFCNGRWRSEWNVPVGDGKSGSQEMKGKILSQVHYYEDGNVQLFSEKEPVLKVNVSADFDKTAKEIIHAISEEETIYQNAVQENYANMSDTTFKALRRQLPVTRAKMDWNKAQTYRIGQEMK
T1 sequence (looked up) 2: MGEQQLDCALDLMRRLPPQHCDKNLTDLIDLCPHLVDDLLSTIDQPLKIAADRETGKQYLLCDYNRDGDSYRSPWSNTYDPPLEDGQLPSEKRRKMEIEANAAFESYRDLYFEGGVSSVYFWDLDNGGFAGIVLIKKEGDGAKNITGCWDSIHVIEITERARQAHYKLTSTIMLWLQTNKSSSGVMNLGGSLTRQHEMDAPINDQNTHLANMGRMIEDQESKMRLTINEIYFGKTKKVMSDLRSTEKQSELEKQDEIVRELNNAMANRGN
Test: microfluidics-assisted TIRF microscopy (filament capture and uncapping); biotinylated SNAP-CP anchored to the coverslip surface, preformed Alexa-488-labeled ADP-actin filaments captured; filament detachment monitored in TIRF buffer (10 mM imidazole pH 7.4, 50 mM KCl, 1 mM MgCl2, 1 mM EGTA, 0.2 mM ATP, 10 mM DTT) with and without TWF-2; single-exponential fit
Details: both partners purified

fold acceleration of uncapping of CP from barbed ends (against buffer): > 90 fold
B1: C. elegans TWF-2 (6×His-tagged), recombinant (natural protein, UniProt Q20173 1-333, looked up)
chain: MACQTGIRANAALRNALNLGKQAKLRLIKIVVNNEEMTPNYEFAGTANWRDDWRACLPDCVDAYEPCFILFRLNTITEWVLITFVDDRAPVREKMLLAATCATFKSEFGQCYIEHEKHVTDLKDLTLNAFEAWLKAKTELGPMSEVERELHNAQQERAAIAHAGPQHMKGVAFPVDRNAEEALRQLASQKLSFVQLSVDTLNEAIKLEGTLESLEPSQLASKVPRDKPRYTFYNFDHTWEGVPQQCTLFIYSLPSSGSSIKERMLYSSCKGPFLSAAQNQYGVVITNKMEVDARDDLSEKALLEVIHPLPVEAPKQFSRPAPPRAGPRRITKV
notes: TWF-2, the sole twinfilin of C. elegans, recombinant; also called twinfilin; source: E. coli BL21 (pRare), purified (Ni-NTA, size-exclusion chromatography Superdex 75 Increase)
